Results as given in patent US11203633B2, “Polynucleotides encoding antibodies or antigen binding fragments thereof that bind pseudomonas perv” (priority 2011, dated 2021).

Columns and labels:
[1] = system: luminescent P. aeruginosa serogroup 05 strain (PAO1.lux); assay: Opsonophagocytic killing (OPK) assay, PAO1.lux; type: cell-based, Pseudomonas aeruginosa; details: purified human IgG1 mAbs from phage panning; FIG. 2A
Procedure: (§1) This example describes the evaluation of prioritized human IgG1 antibodies to promote OPK of P. aeruginosa. […] OPK assays were performed as described in (DiGiandomenico, A., et al., Infect Immun 72, 7012-7021 (2004)), with modifications. Briefly, assays were performed in 96-well plates using 0.025 ml of each OPK component; P. aeruginosa strains; diluted baby rabbit serum; differentiated HL-60 cells; and monoclonal antibody. In some OPK assays, luminescent P. aeruginosa strains, which were constructed as described (Choi, K. H., et al., Nat Methods 2, 443-448 (2005)), were used. Luminescent OPK assays were performed as described above but with determination of relative luciferase units (RLUs) using a Perkin Elmer ENVISION Multilabel plate reader (Perkin Elmer).

[2] = system: P. aeruginosa strains (PAO1, 33356, 6294, 6077, 6206, PA103A); assay: Acute pneumonia model in mice, survival; type: in vivo, Pseudomonas aeruginosa
Procedure: (§2) Antibodies or PBS were administered 24 hours before infection in each model. P. aeruginosa acute pneumonia, keratitis, and thermal injury infection models were performed as described (DiGiandomenico, A., et al., Proc Natl Acad Sci USA 104, 4624-4629 (2007)), with modifications. In the acute pneumonia model, BALB/c mice (The Jackson Laboratory) were infected with P. aeruginosa strains suspended in a 0.05 ml inoculum. In the thermal injury model, CF-1 mice (Charles River) received a 10% total body surface area burn with a metal brand heated to 92° C. for 10 seconds. Animals were infected subcutaneously with P. aeruginosa strain 6077 at the indicated dose. For organ burden experiments, acute pneumonia was induced in mice followed by harvesting of lungs, spleens, and kidneys 24 hours post-infection for determination of CFU.
The in vivo effect of administration of an anti-PcrV antibodies was studied in mice using an acute pneumonia model. Groups of mice were treated with either increasing concentrations of the V2L2 antibody, a positive control anti-PcrV antibody (mAb166), or a negative control (R347), as shown in FIG. 13 (A-B). Groups of mice were also treated with either increasing concentrations of the V2L2 antibody, the PcrV antibody PcrV-02, or a negative control (R347), as shown in FIG. 13 (C-D). Twenty-four hours after treatment, all mice were infected with 5×10^7 CFU (C) Pseudomonas aeruginosa 6294 (06) or (D) PA103A (O11).
Groups of mice were treated with either increasing concentrations of the 11A6, 3G5 or V2L7, the same concentrations of 29D2, 1F3, 1E6, V2L2, LE10, SH3, 4A8, 2H3, or 21F1, increasing concentrations of the 29D2, increasing concentrations of the V2L2, the PcrV antibody PcrV-02, or a negative control (R347), as shown in FIG. 13 (E-H). Mice were injected intraperitoneally (IP) with mAbs 24 hours prior to intranasal infection with Pseudomonas strain 6077 (1×10^6 CFU/animal).

[3] = system: P. aeruginosa strains 6206 and 6294; assay: Acute pneumonia model in mice, histological examination of lung tissue; type: in vivo, Pseudomonas aeruginosa
[4] = system: P. aeruginosa strains (PAO1, 33356, 6294, 6077, 6206); assay: Acute pneumonia model in mice, organ burden (CFU in lung, spleen, kidneys); type: in vivo, Pseudomonas aeruginosa
Procedure: as §2
Organ burden of Pseudomonas-infected mice was also studied in response to administration of V2L2. FIG. 14 (A) Mice were treated with either 1 mg/kg R347 (control), or 1 mg/kg, 0.2 mg/kg, or 0.07 mg/kg of V2L2 and then were infected intranasally with 1.2×10^6 cfu of Pseudomonas 6206. FIG. 14 (B) Mice were also treated with either 15 mg/kg R347 (negative control); 15.0 mg/kg, 5.0 mg/kg, or 1.0 mg/kg mAb166 (positive control); or 5.0 mg/kg, 1.0 mg/kg, or 0.2 mg/kg V2L2 and then were infected intranasally with 5.5×10^6 cfu of Pseudomonas 6206.
The in vivo effect of combination administration of anti-Psl and anti-PcrV binding domains was further studied in mice using the antibodies V2L2 and WapR-004 (RAD). Groups of mice were treated with R347 (2.1 mg/kg—negative control), V2L2 (0.1 mg/kg), W4-RAD (0.5 mg/kg), or V2L2/W4 combination (either 0.1, 0.5, 1.0 or 2.0 mg/kg each). Twenty-four hours post-administration of antibody, all mice were infected with an inoculum containing 5.25×10^5 cfu 6206 (O11-ExoU+). Twenty-four hours post infection, lungs, spleens, and kidneys were harvested, homogenized, and plated for colony forming unit (CFU) identification per gram of tissue.

[5] = system: luminescent P. aeruginosa serogroup 011 strain (9882-80.lux); assay: OPK assay, 9882-80.lux; type: cell-based, Pseudomonas aeruginosa; details: strain 9882-80 (O11); FIG. 2B
Procedure: as §1
The ability of the WapR-004 and Cam-003 antibodies to mediate OPK activity against another clinically relevant 0-antigen serotype strain, 9882-80.lux, was evaluated.

[6] = system: P. aeruginosa strain 6077 (O11-cytotoxic); assay: Corneal infection (ocular keratitis) model in mice; type: in vivo, Pseudomonas aeruginosa
[7] = system: P. aeruginosa strain 6077 (O11-cytotoxic); assay: Corneal infection (ocular keratitis) model in mice; type: in vivo, Pseudomonas aeruginosa; details: C3H/HeN mice; IP, 16 hours prior to infection with 6077 1×10^6 CFU; graded at 48 h; FIG. 8H
Procedure: as §2
Cam-003 and WapR-004 efficacy was next evaluated in a P. aeruginosa corneal infection model which emphasizes the pathogens ability to attach and colonize damaged tissue. […] FIG. 8 (H): The activity of anti-Psl and anti-PcrV monoclonal antibodies V2L2 was tested in a P. aeruginosa mouse ocular keratitis model. […]

[8] = Table 5, 6206 5.25×10^5 cfu, R347 2.1 mg/kg, V2L2 0.1 mg/kg, WapR-004 0.5 mg/kg
[9] = Table 6A, strain 6294 1.33×10^7 CFU, 0.2 mg/kg (combination 0.1 mg/kg ea)
[10] = Table 6B, strain 6294 1.7×10^7 CFU, 0.2 mg/kg (combination 0.1 mg/kg ea)
[11] = Table 7, strain 6206 9.25×10^5 CFU, 0.2 mg/kg (combination 0.1 mg/kg ea)
[12] = 6294 (06) and 6206 (O11), FIG. 7E-F

B1: WapR-004: anti-Psl human IgG1 monoclonal antibody; VH SEQ ID NO:11, VL SEQ ID NO:12 (antibody, V domains shown)
VH: EVQLLESGPGLVKPSETLSLTCNVAGGSISPYYWTWIRQPPGKGLELIGYIHSSGYTDYNPSLKSRVTISGDTSKKQFSLHVSSVTAADTAVYFCARGDWDLLHALDIWGQGTLVTVSS
VL: EIVLTQSPSSLSTSVGDRVTITCRASQSIRSHLNWYQQKPGKAPKLLIYGASNLQSGVPSRFSGSGSGTDFTLTISSLQPEDFATYYCQQSYSFPLTFGGGTKLEIK
modifications: human IgG1 constant regions not cited; WapR-004 VH; WapR-004 & WarR-004RAD VL
OPK activity (killing of PAO1.lux) [1]: superior OPK activity | survival ([2]; strain 6077 (O11) 8×10^5 or 6×10^5 CFU, 5 and 1 mg/kg, FIG. 6E-F): significant concentration-dependent survival | Inflammatory Infiltrate [3, 8]: PMN 2-3+ | Involved Lung Surface Area [3, 8]: 50% | Overall Impression [3, 8]: Broncho interstitial pneumonia | Overall Impression ([3]; Table 6A, BALB/c mice, strain 6294 1.33×10^7 CFU, 0.2 mg/kg (combination 0.1 mg/kg ea)): Broncho interstitial pneumonia | Hemorrhage (extent) [3, 9]: Extensive | Inflammatory Infiltrate [3, 9]: PMN 3+ | Involved Lung Surface Area [3, 9]: (57%), mod epithelial injury, | Overall Impression ([3]; Table 6B, BALB/c mice, strain 6294 1.7×10^7 CFU, 0.2 mg/kg (combination 0.1 mg/kg ea)): Broncho interstitial pneumonia | Bacteria [3, 10]: Neg-2+ | Inflammatory Infiltrate [3, 10]: PMN 2+ | Involved Lung Surface Area [3, 10]: (40%), mod epithelial injury, | Overall Impression ([3]; Table 7, BALB/c mice, strain 6206 9.25×10^5 CFU, 0.2 mg/kg (combination 0.1 mg/kg ea)): Broncho interstitial pneumonia | Bacteria [3, 11]: Neg-1+ | Inflammatory Infiltrate [3, 11]: PMN 2+ | Involved Lung Surface Area [3, 11]: (36%), mild epithelial injury, | organ burden ([4]; 6206 (O11-ExoU+) 5.25×10^5 cfu, V2L2 0.1 mg/kg, W4-RAD 0.5 mg/kg, FIG. 15): effective in lowering organ burden | viable CFU vs. R347, Mann-Whitney U-test P ([4]; 6206, kidney, 5 mg/kg, FIG. 7F): 0.0268 | viable CFU vs. R347, Mann-Whitney U-test P ([4]; 6206, kidney, 15 mg/kg, FIG. 7F): 0.0208 | viable CFU vs. R347, Mann-Whitney U-test P ([4]; 6206, lung, 1 mg/kg, FIG. 7F): 0.0079 | viable CFU vs. R347, Mann-Whitney U-test P ([4]; 6206, lung, 5 mg/kg, FIG. 7F): 0.0006 | viable CFU vs. R347, Mann-Whitney U-test P ([4]; 6206, spleen, 1 mg/kg, FIG. 7F): 0.0047 | viable CFU vs. R347, Mann-Whitney U-test P ([4]; 6206, spleen, 5 mg/kg, FIG. 7F): 0.0261 | viable CFU vs. R347, Mann-Whitney U-test P ([4]; 6206, spleen, 15 mg/kg, FIG. 7F): 0.0059 | dissemination to the spleen and kidneys [4, 12]: effective at reducing P. aeruginosa dissemination to the spleen and kidneys | organ burden [4, 12]: reduced organ burden | viable CFU vs. R347, Mann-Whitney U-test P ([4]; 6294 ~1×10^7 CFU, lung, 1 mg/kg, FIG. 7E): 0.0002 | viable CFU vs. R347, Mann-Whitney U-test P ([4]; 6294 ~1×10^7 CFU, lung, 5 mg/kg, FIG. 7E): 0.0004 | viable CFU vs. R347, Mann-Whitney U-test P ([4]; 6294 ~1×10^7 CFU, lung, 15 mg/kg, FIG. 7E): 0.0011 | viable CFU vs. R347, Mann-Whitney U-test P ([4]; 6294 ~1×10^7 CFU, spleen, 5 mg/kg, FIG. 7E): 0.0014 | OPK activity [5]: OPK activity extends to strain 9882-80 (O11) | corneal pathology and bacterial counts vs negative control-treated animals ([6]; 6077, antibody 24 hours prior to infection, FIG. 8A-D, F-G): significantly less pathology and reduced bacterial counts in total eye homogenates | Cam-003 (45 mg/kg) vs. WapR-004 (15 mg/kg), Mann-Whitney U-test P ([6]; FIG. 8F-G): 0.0025 | Cam-003 (45 mg/kg) vs. WapR-004 (45 mg/kg), Mann-Whitney U-test P ([6]; FIG. 8F-G): 0.018 | WapR-004 (45 mg/kg) vs. WapR-004 (15 mg/kg), Mann-Whitney U-test P ([6]; FIG. 8F-G): 0.1331

B2: WapR-004RAD: identical to WapR-004 except for an amino acid substitution G98A of the VH; VH SEQ ID NO:74, VL SEQ ID NO:12 (antibody, V domains shown)
VH: EVQLLESGPGLVKPSETLSLTCNVAGGSISPYYWTWIRQPPGKGLELIGYIHSSGYTDYNPSLKSRVTISGDTSKKQFSLHVSSVTAADTAVYFCARADWDLLHALDIWGQGTLVTVSS
VL: EIVLTQSPSSLSTSVGDRVTITCRASQSIRSHLNWYQQKPGKAPKLLIYGASNLQSGVPSRFSGSGSGTDFTLTISSLQPEDFATYYCQQSYSFPLTFGGGTKLEIK
modifications: WapR-004RAD VH; WapR-004 & WarR-004RAD VL
animals survived ([2]; 6206, W4-RAD 0.2 mg/kg, monitored 120 hours, FIG. 21A): Approximately 90% | effect on survival ([2]; 6294, W4-RAD 0.2 mg/kg, FIG. 24): did not affect survival | organ burden in lung, spleen, kidney ([4]; 6294 2.5×10^7 CFU, bispecifics 0.7 mg/kg, W4-RAD 0.5 mg/kg, FIG. 23A): had no effect on decreasing organ burden | corneal pathology and CFU in total eye homogenates vs R347 [7]: significantly less pathology and reduced bacterial colony forming units (CFU) in total eye homogenates
